# The DeepSol protein solubility set
# Assay: soluble on expression in E. coli; label from the status in PepcDB or PDB records
row,Sequence,soluble on expression in E. coli
1,AQSVPPGDINTQPSQKIVFNAPYDDKHTYHIKITNAGGRRIGWAIKTTNMRRLSVDPPCGVLDPKEKVLMAVSCDTFNAATERLNNDRITIEWTNTPDGAAKQFRREWFQGDGMVRRKNLPIEYNL,soluble
2,ARLKHLEDEPGHEDEGKRPLFHFSAVERIARIGVPSMIQQSIVSISMLMMQGLVNSYGSVFIAGYTAATKIDSLAMMPNMNFSNAMSSYTAQNIGAGKIERVKDGYKANM,not soluble
3,ASPLMSRTPAFERAAALARAKSAALHIVAFDYVEGLAAAGLLNERALNEMRDGYLASHRQWLEQQAQLIRQSGVEVTTEVVWVMRPLDEIMAHVHEIKPSMVIKDIGHESWLTRAMFTSLDIRLLHDCPVPLHLVANVDH,not soluble
4,ATGTCGTTGGCAAAAGCGTCCTTGTGGACGGCGGCCAGTACACTGGTCAAGATTGGTGCCGGGTTACTGGTCGGTAAGTTGCTGGCGGTGTCATTTGGTCCGGCGGGGCTTGGGCTGGCGGCAAATTTCCGCCAGTTGATTACCGTGCTCGGCGTGCTTGCCGGGGCTGGCATCTTTAACGGTGTAACCAAATACGTTGCCCAGTACCATGATAATCCGCAACAGCTGCGCCGCGTGGTCGGCACTTCATCAGCGATGGTACTTGGTTTCTCTACGCTGATGGCGCTGGTTTTTGTGCTGGCAGCTGCGCCAATCAGCCAGGGATTGTTTGGTAATACCGACTATCAGGGGCTGGTGCGTTTAGTGGCGCTGGTGCAAATGGGGATCGCCTGGGGCAACCTGTTACTGGCGCTGATGAAAGGCTTTCGSGATGCCGCAGGTAATGCGTTATCGCTGATTGTCGGCAGCTTGATTGGCGTTCTCGCGTACTACGTCAGTTACCGTTTGGGCGGTTATGAAGGGGCGTTGCTGGGTCTGGCGCTGATTCCCGCGCTGGTGGTAATTCCTGCCGCCATCATGTTGATCAAACGTGGTGTCATCCCGTTAAGCTATCTGAAACCCAGCTGGGATAACGGTCTGGCAGGGCAGTTGAGCAAATTTACGCTCATGGCGTTGATTACGTCGGTGACCTTGCCTGTTGCTTACATCATGATGCGTAAACTGCTGGCGGCGCAGTATAGCTGGGATGAGGTGGGGATCTGGCAAGGGGTGAGCAGTATTTCCGATGCCTACCTGCAATTTATTACGGCATCGTTCAGCGTATATTTGCTGCCCACGTTGTCGCGGCTAACGGAAAAGCGCGATATCACCCGGGAAGTGGTTAAATCGCTGAAATTCGTCTTACCGGCAGTGGCGGCGGCGAGTTTTACCGTCTGGCTGCTGCGTGATTTTGCTATCTGGCTGCTGTTGTCGAATAAATTTACCGCTATGCGCGATCTCTTTGCCTGGCAGTTAGTGGGTGATGTGTTAAAAGTGGGCGCTTATGTCTTTGGTTATCTGGTGATCGCCAAAGCGTCACTGCGGTTTTATATTCTGGCGGAAGTCAGCCAGTTCACTTTATTGATGGTATTTGCCCACTGGCTAATCCCTGCGCATGGTGCACTGGGCGCGGCGCAGGCATATATGGCAACTTATATCGTCTATTTTTCTCTTTGTTGTGGCGTGTTTTTACTCTGGCGTAGGCGGGCATGA,not soluble
5,AVGTPITISVPSLPYANSASEIVLSQLRDIGFDVRLESTEFPSVWLSKVYKAKDYDMSVVAHVEARDIPNLFGNPDYYLGFDDEQVRELLAQADSGDADSYVSTMKKVVNRIMDQAGADTLFNLPNIVVTQPDVSGVPTNLVADGLVVSNISRSED,not soluble
6,AVINHDAVPVWPQPEPADATQALAVRFKPQLDVVNGCQPYPAVDPQGNTSGGLKPSGSQAAACRDMSKAQVYSRSGTYNGYYAIMYSWYMPKDSPSTGIGHRHDWENVVVWLDNAASANIVALSASAHSGYKKSFPADKSYLDGITAKISYKSTWPLDHELGFTTSAGKQQPLIQWEQMTQAARDALESTDFGNANVPFKSNFQDKLVKAFFQ,soluble
7,AVTKLVLVRHGESQWNKENRFTGWYDVDLSEKGVSEAKAAGKLLKEEGYSFDFAYTSVLKRAIHTLWNVLDELDQAWLPVEKSWKLNERHYGALQGLNKAETAEKYGDEQVKQWRRGFAVTPPELTKDDERYPGHDPRYAKLSEKELPLTESLALTIDRVIPYWNETILPRMKSGERVIIAAHGNSLRALVKYLDNMSEEEILELNIPTGVPLVYEFDENFKPLKRYYLGNADEIAAKAAAVANQGKAK,soluble
8,AWVDQTPRTATKETGESLTINCVLRDASFELKDTGWYRTKLGSTNEQSISIGGRYVETVNKGSKSFSLRISDLRVEDSGTYKCQAFYSLLLRDYNYSLLFRGEKGAGTALTVKAAA,soluble
9,CGSSSHETSYGYATLSYADYWAGELGQSRDVLLAGNAEADRAGDLDAGMFDAVSRATHGHGAFRQQFQYAVEVLGEKVLSKQETEDSRGRKKWEYETDPSVTKMVRASASFQDLGEDGEIKFEAVEGAVALADRASSFMVDSEEYKITNVKVHGMKFVPVAVPHELKGIAKEKFHFVEDSRVTENTNGLKTMLTEDSFSARKVSSMESPHDLVVDTVGTGYHSRFGSDAEASVMLKRADGSELSHREFIDYVMNFNTVRYDYYGDDASYTNLMASYGTKHSADSWWKTGRVPRISCGINYGFDRFKGSGPGYYRLTLIANGYRDVVADVRFLPKYEGNIDIGLKGKVLTIGGADAETLMDAAVDVFADGQPKLVSDQAVSLGQNVLSADFTPGTEYTVEVRFKEFGSVRAKVVAQ,soluble
10,CIHSLKSEAIFFERTANFDGNTREKIIAMHVGYRIYARMEPVLSTCAIVAKTPWVLEKASPERLNELNRLEEEVISGADALVNNAVECGDLKFSPAIGADAIVFANWSIAFGSNALAQNASNSRCIQRIQDPFSVLHNANMLLDGLGWAPLSTEWDYRKTWRRVEQELFSEEIAYLETVNR,not soluble
11,CKRNVFNPSIPNRTQFIEDPIANLSIPSKDAAIKVTPYTFEGTSGRVYAHVERFFKFNGEYYIIFFRRYIYDTQAGTYAETAPGGNYHLIKIGKSMKYQEVAVNLNQDHPGLYARYTTIAQGNAYIKGSDIYVPINMADLSKGYYQSSSADLSKWTTNNNTALDVAGLGLTKIEVMDTSRITVGKYTYMYNGGGLQFSINRLEDRMRQAAERYETKMVFNEADFNNLHMFDIGMDTDGDNQIDYRMNPTNYIENDTDYSWIGMQTPHQVWIMPFNDGEKDYLIRFVEYCSGMYNINTLKTERDSAKTKADTALTQALALVSNPNSSKAEIAEACYQSIRNNLEYEVRNYFIGKYESVFKTSTPTAYVVPNYALTHYVIEIVDIQ,not soluble
12,CVTGDTLVFTDKGLIEARKLEVGMKVWSGDGWNEIKEVINNGVKPVLKLKLKTGLEIKVTEEHKIFTGEGWKEAKDLKVGDKLYLPVSYPELDFPVKEENDFYEFLGYFLGDGSLSVSNHVSLHVGNDKELALYFKEKVEKYAGAAYLIERDGQYIIDVHRKEFAEKIKKIFGIEITDSKEKDIPSSLLAVNSEAMKALLRGLFSADGSVYDANGSITVALSSTSYPLLRKVQILLLSLGIPSTLTGEKDQDVKIIKGNEYETLPTYRLIISGERASLFFNKIGLIGEKKKKFLELMAGKTTYSTLNNHLYQEIVSIEPAGEEEVFDITAPPKYTWITNGILSLD,soluble
13,DADLATGAKVFSANCAACHAGGINLVNAEKTLKKEALEKFGMNSIVAITTQVTNGKAGMPAFKGRLTDDQIAAVAAYVLDQAEKGW,soluble
14,DIIITAGGKNITPAEIESRLKFSHYISDAVIVGDKRKFLTCLIMIDQENVEKFAQDRKVPFSNFASLCAAKEVRELIAAEVAQVNKEFARVEQIKDFRLIDVLLTAEDDELTATMKLKRSFVEKKHAHLIEDMYK,soluble
15,DKMDGAPSRVLHIRKLPGEVTETEVIALGLPFGKVTNILMLKGKNQAFLELATEEAAITMVNYYSAVTPHLRNQPIYIQYSNHKELKT,soluble
16,DKSNKLQNLVAEQLVGCGFNEILNNSLTRAAYYDGLESYPSKNLVMLLNPLSADLNCMRQTLLFGGLESIAHNANRKNADLKFFEFGNCYHFDAEKKNPEKVLAPYSEDYHLGLWVTGKMVSNSWAHADENTSVYELKAYVENIFKRLGLDLHSLVVGNLSDDIYSTALTVNTKGGKRLATFGVVTKKMLKAFDVDNEVYYADLNWK,not soluble
17,DLREVLDFMLKDEVSKLRKLLVKIKTKKIAEVEYENVVKALKLFKDNYEINEYLMDENTKEFLIKRNILFLNPVEEILKPQSYLVWNAIKRVLQNINDF,soluble
18,DLRRQLRKAVMDHVSDSFLETNVPLLVLIEAAKNGNEKEVKEYAQVFREHANKLIEVANLACSISNNEEGVKLVRMSASQLEALCPQVINAALALAAKPQSKLAQENMDLFKEQWEKQVRVLTDAVDDITSIDDFLAVSENHILEDVNKCVIALQEKDVDGLDRTAGAIRGRAARVIHVVTSEMDNYEPGVYTEKVLEATKLLSNTVMPRFTEQVEAAVEALSSDPAQPMDENEFIDASRLVYDGIRDIRKAVLMI,soluble
19,DNYFRIHVKKLPEENKDAQGLWTWDDVEKPSENWPNGALSFKDAKKDDYGYYLDVKLKGEQAKKISFLINNTAGKNLTGDKSVEKLVPKMNEAWLDQDYKVFSYEPQPAGTVRVNYYRTDGNYDKKSLWYWGDVKNPSSAQWPDGTDFTATGKYGRYIDIPLNEAAREFGFLLLDESKGDVKIRKENYKFTDLKNHSQIFLKDDDESIYTNPYYVHD,soluble
20,DPTQSVRAYYIQNGDSTKTVIIGQGWTEHVDWIGYVSKIWYDMGYNVLMPSQRGQFLSDGDNLTFGYQDKYDWLNWVKMVDERNGADSQVVFYGQSLGADTVLEAASVPGLSKSVKAVVSDAGYATLPELGSSLYNKAITAVSNALQSIGLPAITSLPFLSYDKIVAAMNARLIKEQGFSVDDLSATDAASKITIPLLLIHTQDDAFIPYTQSLELAAANHSANQEVWILPGTVGGHAAANNAILQYRQHLLAFLTPLLSVADAED,not soluble
21,DQVGIWGNSPTAHRGLAVAARHAAPLLRVEDAFLRSLFPGRAGEPPLGLLLDRAGVHFDPTTPSDLEQLLTSAPLDDTTLLNRARDAMARIRENHLSKYCATDPDLPLPEPGYVLVIDQTRGDASVTASGGNDALFREMLVFAQEEHPGARVLIKTHPETAAGFRPGYYGERDISVRVSLYDAPLSPWALLDGAVGVYTLSSQLGFEAILAGHKPRVFGQPFYAGWGLTLDEHPVPRRERRLTRAQLFAAAMILYPTW,not soluble
22,DRCRYTLCCDGALKAVSACLHESESCLVPGDCCRGKSRLTLCSYGEGGNGFQCPTGYRQC,soluble
23,DRICTNCCAGTKGCKYFSDDGTFVCEGESDPRNPKACTLNCDPRIAYGVCPRSEEKKNDRICTNCCAGTKGCKYFSDDGTFVCEGESDPRNPKACPRNCDPRIAYGICPLA,soluble
24,DRLTVVKQYVDNVLNKASDTYHGDKPSPLLADGVDPRTGQQLEWIFPDGRRAVLSNFSAQQNLMRVMSGLSQLSGDPRYQKRAEDIVRYHFQNYQDPSGLLYWGGHRFVDLKTLQPEGPSEKEMVHELKNAYPYYDLMFSVDSDATARFIRGFWNAHVYDWRILETSRHGEYGKPMGALWESKFEQQPPFFATKGLSFLNAGNDLIYSASLLYKHQQDQGALTWAKRLADQYVLPRDAKTGLGVYQFTQALKREEPTDDADTHSKFGDRAQRQFGPEFGPTALEGNMMLKGRTSTLYSENALMQLQLGKDLGPQGQDLLKWTVDGLKAFAKYAYNDQDNTFRPMIANGQDLSNYTLPRDGYYGKKGTVLKPYKAGNEFLISYARAYAIDNDPLLWKVARGIANDQGLGDIGTAPGKEVKVNMDTTNSDPYALFALLDLYHASQVADYRKLAEKIGDNIIKIRYIDGFFMASSDRQYADVDAIEPYALLALEASLRNKPQAVAPFLNGAGFTEGAYRMDDGSARVSTRDNELFLLNVGEKLQPN,soluble
25,DRYCLTAPNYRLKSLQKKASTSAGRITVPRLSVGSVTSRPSTPTLGTPTPQTMSVSTKVGTPMSLTGQRFTVQMPTSQSPAVKASIPATSAVQNVLINPSLIGSKNILITTNMMSSQNTANESSNALKRKR,soluble
